Sequences and labels used below:
T1: human β-FXIIa (HFXIIAB; Molecular Innovations) (human, UniProt P00748 354-362; P00748 373-615)
T1 chain 1: NGPLSCGQR
T1 chain 2: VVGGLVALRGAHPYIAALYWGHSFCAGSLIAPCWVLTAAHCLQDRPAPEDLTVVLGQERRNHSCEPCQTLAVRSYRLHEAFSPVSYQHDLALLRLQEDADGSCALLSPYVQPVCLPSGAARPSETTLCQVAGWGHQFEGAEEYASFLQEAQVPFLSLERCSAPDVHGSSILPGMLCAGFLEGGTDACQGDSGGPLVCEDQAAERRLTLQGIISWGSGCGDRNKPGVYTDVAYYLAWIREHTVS

B1: peptide 5 (peptide 2, Phe3 to leucine) (peptide)
peptide: RCLRLPCRQLRCRW-NH2
modifications: linker 2-7-12 via TATA; N-terminus assumed
SMILES: CC(C)C[C@@H]1NC(=O)[C@H](CCC(N)=O)NC(=O)[C@H](CCCNC(=N)N)NC(=O)[C@@H]2CSCCC(=O)N3CN(CN(C3)C(=O)CCSC[C@H](NC(=O)[C@@H](N)CCCNC(=N)N)C(=O)N[C@@H](CC(C)C)C(=O)N[C@@H](CCCNC(=N)N)C(=O)N[C@@H](CC(C)C)C(=O)N3CCC[C@H]3C(=O)N2)C(=O)CCSC[C@@H](C(=O)N[C@@H](CCCNC(=N)N)C(=O)N[C@@H](Cc2c[nH]c3ccccc23)C(N)=O)NC(=O)[C@H](CCCNC(=N)N)NC1=O
B2: FXII618 variant with P in position six replaced by S (peptide)
peptide: RCFRLSCRQLRCRW-NH2
modifications: linker 2-7-12 via TATA; N-terminus assumed
SMILES: CC(C)C[C@@H]1NC(=O)[C@H](CCC(N)=O)NC(=O)[C@H](CCCNC(=N)N)NC(=O)[C@@H]2CSCCC(=O)N3CN(CN(C3)C(=O)CCSC[C@H](NC(=O)[C@@H](N)CCCNC(=N)N)C(=O)N[C@@H](Cc3ccccc3)C(=O)N[C@@H](CCCNC(=N)N)C(=O)N[C@@H](CC(C)C)C(=O)N[C@@H](CO)C(=O)N2)C(=O)CCSC[C@@H](C(=O)N[C@@H](CCCNC(=N)N)C(=O)N[C@@H](Cc2c[nH]c3ccccc23)C(N)=O)NC(=O)[C@H](CCCNC(=N)N)NC1=O
B3: peptide 15 (peptide 2, Pro6 to alanine) (peptide)
peptide: RCFRLACRQLRCRW-NH2
modifications: linker 2-7-12 via TATA; N-terminus assumed
SMILES: CC(C)C[C@@H]1NC(=O)[C@H](CCCNC(=N)N)NC(=O)[C@H](Cc2ccccc2)NC(=O)[C@@H](NC(=O)[C@@H](N)CCCNC(=N)N)CSCCC(=O)N2CN3CN(C2)C(=O)CCSC[C@@H](C(=O)N[C@@H](CCCNC(=N)N)C(=O)N[C@@H](Cc2c[nH]c4ccccc24)C(N)=O)NC(=O)[C@H](CCCNC(=N)N)NC(=O)[C@H](CC(C)C)NC(=O)[C@H](CCC(N)=O)NC(=O)[C@H](CCCNC(=N)N)NC(=O)[C@H](CSCCC3=O)NC(=O)[C@H](C)NC1=O
B4: peptide 18 (peptide 2, Pro6 to leucine) (peptide)
peptide: RCFRLLCRQLRCRW-NH2
modifications: linker 2-7-12 via TATA; N-terminus assumed
SMILES: CC(C)C[C@@H]1NC(=O)[C@H](CCC(N)=O)NC(=O)[C@H](CCCNC(=N)N)NC(=O)[C@@H]2CSCCC(=O)N3CN(CN(C3)C(=O)CCSC[C@H](NC(=O)[C@@H](N)CCCNC(=N)N)C(=O)N[C@@H](Cc3ccccc3)C(=O)N[C@@H](CCCNC(=N)N)C(=O)N[C@@H](CC(C)C)C(=O)N[C@@H](CC(C)C)C(=O)N2)C(=O)CCSC[C@@H](C(=O)N[C@@H](CCCNC(=N)N)C(=O)N[C@@H](Cc2c[nH]c3ccccc23)C(N)=O)NC(=O)[C@H](CCCNC(=N)N)NC1=O
B5: peptide 21 (peptide 2, Gln9 to aspartate) (peptide)
peptide: RCFRLPCRDLRCRW-NH2
modifications: linker 2-7-12 via TATA; N-terminus assumed
SMILES: CC(C)C[C@@H]1NC(=O)[C@H](CC(=O)O)NC(=O)[C@H](CCCNC(=N)N)NC(=O)[C@@H]2CSCCC(=O)N3CN(CN(C3)C(=O)CCSC[C@H](NC(=O)[C@@H](N)CCCNC(=N)N)C(=O)N[C@@H](Cc3ccccc3)C(=O)N[C@@H](CCCNC(=N)N)C(=O)N[C@@H](CC(C)C)C(=O)N3CCC[C@H]3C(=O)N2)C(=O)CCSC[C@@H](C(=O)N[C@@H](CCCNC(=N)N)C(=O)N[C@@H](Cc2c[nH]c3ccccc23)C(N)=O)NC(=O)[C@H](CCCNC(=N)N)NC1=O
B6: peptide 83 (FXII618, Arg8 to glycine) (peptide)
peptide: RCFRLPCGQLRCR-NH2
modifications: linker 2-7-12 via TATA; N-terminus assumed
SMILES: CC(C)C[C@@H]1NC(=O)[C@H](CCC(N)=O)NC(=O)CNC(=O)[C@@H]2CSCCC(=O)N3CN(CN(C3)C(=O)CCSC[C@H](NC(=O)[C@@H](N)CCCNC(=N)N)C(=O)N[C@@H](Cc3ccccc3)C(=O)N[C@@H](CCCNC(=N)N)C(=O)N[C@@H](CC(C)C)C(=O)N3CCC[C@H]3C(=O)N2)C(=O)CCSC[C@@H](C(=O)N[C@@H](CCCNC(=N)N)C(N)=O)NC(=O)[C@H](CCCNC(=N)N)NC1=O

Starred links: 1 amine or outer side, 2 acyl side, 3 side chain; linkers in the order of their positions; H or OH if unused. Positions of bridges follow the written chain, without caps; N, C: chain ends. Non-standard residues stand in square brackets, D forms with d. No end group written: not given here. TATA = O=C(CC[*:1])N1CN(C(=O)CC[*:2])CN(C(=O)CC[*:3])C1; Bta = N[C@@H](Cc1csc2ccccc12)C(=O)O; βAla = NCCC(=O)O

The term Ki denotes the equilibrium dissociation constant of an inhibitor or competing ligand from its target. Low readings indicate higher affinity, high ones lower affinity.

The target in the first assay is T1, human β-FXIIa (HFXIIAB; Molecular …). Nature of the assay: enzyme inhibition.
With RCFRLPCSQLSCE [FXII613], the Ki amounted to 62 nM.
The same measure, in the same setting: the value for RCFRLPCEQLSCE [FXII612] was 63 nM; that for RCFRLPCRQLSCE [FXII614] was 39 nM.
Molecule RCFRLPCAQLRCR [FXII617] came in with a Ki of 25 nM. Against the preceding molecule, the Ki is about 1.6-fold lower.
On the same count and under the same terms, the value for RCFRLPCWQLSCE [FXII615] was 246 nM; that for ACFRLPCAQLSCE [FXII610] was 231 nM.
The same measure, in the same setting: the figure for RCPRLPCAQLRCE [FXII609] is 123 nM; for RCPRLPCAQLSCE [FXII607] it is 985 nM; for RCFRLPCAQLRCE [FXII608] it is 44 nM.
The same measure, in the same setting: the value for RCFRLPCRQLRCA [FXII616] was 31 nM.

A further assay has the same target. Nature of the assay: enzyme inhibition. This is another data set of the same source.
RC[Bta]RLPCRQLRCRW-NH2 (linker 2-7-12 via TATA) [FXII618 variant with F in position three replaced by 3-benzothienylalanine] gave an inhibition constant (Ki) of 23 nM.
The same measure, in the same setting: the figure for B1 is 70 nM.

The target is the same in another assay. Nature of the assay: enzyme inhibition. The source holds these as a separate data set.
For the molecule B2, affinity was put at a Ki of 75 nM.
Same read-out and setting: the value for B3 was 50 nM.
The same measure, in the same setting: the figure for RCFRLDCRQLRCR [Pro6 Aspartic acid (20)] is 307 nM; for RCFRLNCRQLRCR [Pro6 Asparagine (19)] it is 264 nM.
On the same count and under the same terms, the value for B4 was 20 nM.
Molecule RCFRLVCRQLRCR [Pro6 Valine (17)] showed an inhibition constant Ki of 119 nM. This Ki lies about 6-fold higher than the previous one.

Another assay shares this target. Nature of the assay: enzyme inhibition. This is another data set of the same source.
RCFRLPCRELRCR [Gln9 Glutamic acid (23)] yielded an inhibition constant Ki of over 10000 nM.
On the same count and under the same terms, the value for RCFRLPCRNLRCR [Gln9 Asparagine (22)] was 2550 nM; that for RCFRLPCRHLRCR [Gln9 Histidine (24)] was over 10000 nM; that for B5 was 1400 nM.
Same read-out and setting: the value for RCFRLPC[βAla]QLRCR-NH2 (linker 2-7-12 via TATA; not fully specified) [peptide 82 (FXII618, Arg8 to β-alanine)] was 755 nM.
Same read-out and setting: the figure for B6 is 52 nM.

The target is the same in another assay. Nature of the assay: enzyme inhibition; TATA-cyclized.
LCPRLSCHQLGCS [FXII515] came in with a Ki of 2500 nM.
On the same count and under the same terms, the figure for LCSRLPCEQLPCN [FXII514] is 10200 nM; for RCWYGCVPQCY [FXII509] it is 1000 nM.
Still for that read-out and setting: the value for ACWGACQNVCR [FXII506] was 6300 nM.
Still for that read-out and setting: the value for ACWGAALSCNPQGSRCG [FXII527] was 8500 nM; that for RCWGACLNVCS [FXII502] was 1200 nM.
The molecule GCCYLRYLCS [FXII513] showed an inhibitory constant (Ki) of 350 nM. Against the preceding molecule, the Ki is about 3.4-fold lower.
As for ACWGAAQRCKVMQGECG [FXII528], the Ki is 3700 nM.
Still for that read-out and setting: the value for ACWGAASACQQGGAKCG [FXII534] was 2400 nM; that for VCWGACLNVCP [FXII504] was 1900 nM.

Source of the values: patent US20180118786A1 (published 2018).
